Assay [1] addresses T1, human VEGF165 ligand (human, UniProt P15692-4 27-191). Kind of assay: cell-based or functional assay.
For assay [2], the target named is T1, human VEGF165 ligand. Kind of assay: serial dilution mixed with 50 pM human VEGF165 in solution, unbound VEGF165 measured by ELISA. As to the method:
The amount of unbound VEGF₁₆₅ was then measured by a human VEGF-specific ELISA (Human VEGF DuoSet ELISA kit, R&D Systems, CAT. No. DY293B-05).
(§1) Unbound human VEGF₁₆₅ or PDGF-BB was calculated using 4 parameters curve with the absorbance value. And the IC₅₀ of the tested fusion proteins and the reference was calculated using 4 parameters curve with unbound human VEGF₁₆₅ or PDGF-BB.

Assay [3] addresses T2, human PDGF-BB ligand (human, UniProt P01127 82-190). Kind of assay: serial dilution mixed with 1 ng/ml human PDGF-BB in solution, unbound PDGF-BB measured by ELISA. The procedure:
The amount of unbound PDGF-BB was then measured by a human PDGF-BB-specific ELISA (Human PDGF-BB DuoSet ELISA kit, R&D Systems, CAT. No. DY220).
as §1
(ELISA stands for enzyme-linked immunosorbent assay.)

For assay [4], the target named is T1, human VEGF165 ligand. Kind of assay: cell-based or functional assay. The source holds these as a separate data set.
Assay [5] has as its target T2, human PDGF-BB ligand. Put plainly: native PAGE electromobility gel shift; alone or together with VEGF165. As to the method:
EPS1104P was mixed with VEGF₁₆₅ (#C083, Novoprotein, Shanghai, China), PDGF-BB (#C199, Novoprotein, Shanghai, China) and VEGF+PDGF-BB, and incubated in an ice bath for 30 min. 40 μL of the above three incubation mixtures and EPS1104P were added to 10 μl of 5× Loading buffer (#ES005, Wanshenghaotian, Shanghai, China), respectively, and the four samples were loaded on a native PAGE gel (#NGSH2001-8T, Wanshenghaotian, Shanghai, China). The electrophoresis was run at 70 V for 6 hours. The gel was stained with Coomassie blue and then bleached. […] It is also possible to combine EPS1104P with both VEGF165 and PDGF-BB to form a stable complex.
For orientation: Mobility shift assays separate free from complexed probe on a gel.

Like-named read-outs stand apart in the source and are kept apart here.

T1 sequence (P15692 other isoform, or with tags, fused parts or gaps limits assumed): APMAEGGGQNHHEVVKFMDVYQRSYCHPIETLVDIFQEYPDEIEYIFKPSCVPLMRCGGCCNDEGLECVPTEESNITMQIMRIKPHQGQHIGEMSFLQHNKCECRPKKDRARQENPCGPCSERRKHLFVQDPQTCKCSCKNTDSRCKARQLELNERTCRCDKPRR
T2 sequence (P01127 82-190): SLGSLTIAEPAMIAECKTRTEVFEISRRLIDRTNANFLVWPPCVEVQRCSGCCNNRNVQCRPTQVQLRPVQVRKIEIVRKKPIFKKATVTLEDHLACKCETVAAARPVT

B1: PDGFRαD123-PAS(200)-VEGFR1D2/R2D3 fusion protein (receptor)
chain: QLSLPSILPNENEKVVQLNSSFSLRCFGESEVSWQYPMSEEESSDVEIRNEENNSGLFVTVLEVSSASAAHTGLYTCYYNHTQTEENELEGRHIYIYVPDPDVAFVPLGMTDYLVIVEDDDSAIIPCRTTDPETPVTLHNSEGVVPASYDSRQGFNGTFTVGPYICEATVKGKKFQTIPFNVYALKATSELDLEMEALKTVYKSGETIVVTCAVFNNEVVDLQWTYPGEVKGKGITMLEEIKVPSIKLVYTLTVPEATVKDSGDYECAARQATREVKEMKKVTISVHEKGASPAAPAPASPAAPAPSAPAASPAAPAPASPAAPAPSAPAASPAAPAPASPAAPAPSAPAASPAAPAPASPAAPAPSAPAASPAAPAPASPAAPAPSAPAASPAAPAPASPAAPAPSAPAASPAAPAPASPAAPAPSAPAASPAAPAPASPAAPAPSAPAASPAAPAPASPAAPAPSAPAASPAAPAPASPAAPAPSAPAASDTGRPFVEMYSEIPEIIHMTEGRELVIPCRVTSPNITVTLKKFPLDTLIPDGKRIIWDSRKGFIISNATYKEIGLLTCEATVNGHLYKTNYLTHRQTNTIIDVVLSPSHGIELSVGEKLVLNCTARTELNVGIDFNWEYPSSKHQHKKLVNRDLKTQSGSEMKKFLSTLTIDGVTRSDQGLYTCAASSGLMTKKNSTFVRVHEKHHHHHHA
modifications: glycosylated (as purified from MEXi-293E medium)
notes: also called EPS1108P
As a reminder, the IC50 is the concentration that gives 50% inhibition. Read a high IC50 as weaker potency. In the case of B1, in the assay with human VEGF165 ligand [1], the “Inhibition of HUVEC cells proliferation, IC50” value was 28.5 nM. The IC50 with human VEGF165 ligand [2] worked out at 0.32 nM; in the assay with human PDGF-BB ligand [3], 66.3 nM.

B2: PDGFRαD123-PAS(400)-VEGFR1D2/R2D3 (receptor)
chain: QLSLPSILPNENEKVVQLNSSFSLRCFGESEVSWQYPMSEEESSDVEIRNEENNSGLFVTVLEVSSASAAHTGLYTCYYNHTQTEENELEGRHIYIYVPDPDVAFVPLGMTDYLVIVEDDDSAIIPCRTTDPETPVTLHNSEGVVPASYDSRQGFNGTFTVGPYICEATVKGKKFQTIPFNVYALKATSELDLEMEALKTVYKSGETIVVTCAVFNNEVVDLQWTYPGEVKGKGITMLEEIKVPSIKLVYTLTVPEATVKDSGDYECAARQATREVKEMKKVTISVHEKGASPAAPAPASPAAPAPSAPAASPAAPAPASPAAPAPSAPAASPAAPAPASPAAPAPSAPAASPAAPAPASPAAPAPSAPAASPAAPAPASPAAPAPSAPAASPAAPAPASPAAPAPSAPAASPAAPAPASPAAPAPSAPAASPAAPAPASPAAPAPSAPAASPAAPAPASPAAPAPSAPAASPAAPAPASPAAPAPSAPAASPAAPAPASPAAPAPSAPAASPAAPAPASPAAPAPSAPAASPAAPAPASPAAPAPSAPAASPAAPAPASPAAPAPSAPAASPAAPAPASPAAPAPSAPAASPAAPAPASPAAPAPSAPAASPAAPAPASPAAPAPSAPAASPAAPAPASPAAPAPSAPAASPAAPAPASPAAPAPSAPAASPAAPAPASPAAPAPSAPASDTGRPFVEMYSEIPEIIHMTEGRELVIPCRVTSPNITVTLKKFPLDTLIPDGKRIIWDSRKGFIISNATYKEIGLLTCEATVNGHLYKTNYLTHRQTNTIIDVVLSPSHGIELSVGEKLVLNCTARTELNVGIDFNWEYPSSKHQHKKLVNRDLKTQSGSEMKKFLSTLTIDGVTRSDQGLYTCAASSGLMTKKNSTFVRVHEKHHHHHH
notes: also called EPS1104P
Turning to B2, the “Inhibition of HUVEC cells proliferation, IC50” value in the assay with human VEGF165 ligand [4] turned out to be 1.43 nM. In the assay with human PDGF-BB ligand [5], the binding result is “binds”. The molecule further displayed an IC50 in the assay with human VEGF165 ligand [2] of 0.495 nM.
